Reference: paper PMC9617004, “Cloning and characterization of thermophilic endoglucanase and its application in the transformation of ginsenosides” (AMB Express, 2022)

What was measured:
Assay in all cases: HPLC of ginsenoside conversion, Michaelis-Menten
Type in all cases: biochemical, Fervidobacterium pennivorans
Conditions in all cases: 50 mM phosphate-citrate, pH 6.0, 95 °C, substrate range stated as 0.5 to 10.0 mM (printed unit µM may be mM)
[1] = substrate: CC(C)=CCC[C@](C)(O[C@@H]1O[C@H](CO)[C@@H](O)[C@H](O)[C@H]1O)[C@H]1CC[C@]2(C)[C@@H]1[C@H](O)C[C@@H]1[C@@]3(C)CC[C@H](O[C@@H]4O[C@H](CO)[C@@H](O)[C@H](O)[C@H]4O[C@@H]4O[C@H](CO)[C@@H](O)[C@H](O)[C@H]4O)C(C)(C)[C@@H]3CC[C@]12C
Text: (§1) HPLC of ginsenoside conversion, Michaelis-Menten on BcelFp

[2] = substrate: CC(C)=CCC[C@](C)(O[C@@H]1O[C@H](CO[C@@H]2O[C@H](CO)[C@@H](O)[C@H](O)[C@H]2O)[C@@H](O)[C@H](O)[C@H]1O)[C@H]1CC[C@]2(C)[C@@H]1[C@H](O)C[C@@H]1[C@@]3(C)CC[C@H](O[C@@H]4O[C@H](CO)[C@@H](O)[C@H](O)[C@H]4O[C@@H]4O[C@H](CO)[C@@H](O)[C@H](O)[C@H]4O)C(C)(C)[C@@H]3CC[C@]12C
Text: as §1

[3] = substrate: [H][C@@]1(O[C@@H]2[C@@H](O)[C@H](O)[C@@H](CO)O[C@@]2([H])O[C@H]2CC[C@]3(C)[C@@]4([H])C[C@@H](O)[C@]5([H])[C@@]([H])([C@](C)(CCC=C(C)C)O[C@@H]6O[C@H](CO[C@@H]7OC[C@H](O)[C@H](O)[C@H]7O)[C@@H](O)[C@H](O)[C@H]6O)CC[C@@]5(C)[C@]4(C)CC[C@@]3([H])C2(C)C)O[C@H](CO)[C@@H](O)[C@H](O)[C@H]1O
Text: as §1

B1: BcelFp (Fervidobacterium pennivorans DSM 9078) (protein)
chain: MDQSVAESDSNSALEYNKIIGKGVNIGNALEAPFEGAWGVRIEDEYFEIIKKRGFDSVRIPIRWSAHISEKPPYDIDRNFLERVKHVVDRALENNLTVIINTHHFEELYQEPDKYGNVLVEIWRQIAKFFKDYPENLFFEIYNEPAQNLTAEKWNELYPKVLKVIRESNPTRIVIIDAPNWAHYSAVRSLKLVNDKRIIVSFHYYEPFNFTHQGAEWVNPTPPVGVKWNGEEWEINQIRSHFKYVSDWAKQNKVPIFLGEFGAYSKADMDSRVKWTESVRKMAEEFGFSYAYWEFCAGFGIYDRWSQNWIEPLATAVVGESKE
notes: 323 residues (969 bp), N-terminal His-tag, pET28a BamHI/XhoI, E. coli BL21-CodonPlus(DE3)-RIL, Ni-NTA; calculated 37,892 Da, about 38 kDa by SDS-PAGE; forward primer starts … (MDQSVA)
[1]
  Vmax: 156 µM/min
  kcat/Km: 27900 M⁻¹ s⁻¹
[1]; unit of the source corrected
  Km: 670 µM
[2]
  Vmax: 382 µM/min
  kcat/Km: 12500 M⁻¹ s⁻¹
[2]; unit of the source corrected
  Km: 3660 µM
[3]
  Vmax: 315 µM/min
  kcat/Km: 9390 M⁻¹ s⁻¹
[3]; unit of the source corrected
  Km: 4020 µM
